5 molecules from US20260201039A1 (CENTESSA PHARMACEUTICALS UK, published 2026) can be followed below.

The target of assay [1] is T1, human/cyno recombinant CD28 protein (human (printed as human/cyno), UniProt P10747 19-152).
T1 construct: Bought recombinant protein; also called human recombinant CD28; human/cyno CD28
Put plainly: SPR (Biacore 8K), CD28 captured on an anti-His surface, Fab as analyte, multi-cycle kinetics, 1:1 fit. How it is done: In order to assess the binding of test Fabs to human or mouse CD28 (Acro Biosystems, Newark, USA), multi-cycle kinetic analysis was performed at 25° C. on a Biacore® 8K (serial no. 2724204) HBS-P+ (Cytiva, Marlborough, USA) supplemented with 0.1% BSA (Sigma, Dorset, UK) was used as running buffer as well as for ligand and analyte dilutions. CD28 proteins were diluted to 1.0 μg/mL in running buffer and at the start of each cycle loaded onto Fc2, of a series S CM5 chip (Cytiva, Marlborough, USA) previously coupled with an anti-His capture antibody (Cytiva, Marlborough, USA) using standard amine chemistry. Ligand was captured at a flow rate of 10 μl/min to give an immobilization level (RL) of ~60 RU. The surface was then allowed to stabilize. Multi-cycle kinetic data was obtained antigens as the analyte injected at a flow rate of 30 μl/min to try and minimize any potential mass transfer effects. A 9 point 2-fold dilution of purified Fab titrated from 0.39 nM to 100 nM was prepared in running buffer for Fab proteins. For each concentration, the association phases were monitored for 240 seconds, and the dissociation phase was measured for 900 seconds. Regeneration of the sensor chip surface was conducted between cycles using 10 mM glycine pH 2.1. Multiple repeats of a blank and of antigen were programmed into the kinetic run, in order to check the stability of both the surface and analyte over the kinetic cycles. The signal from the reference Fc1 (no ligand captured) was subtracted from that of Fc2 to correct for bulk effect and differences in non-specific binding to a reference surface. The signal from each blank run (ligand captured but no antigen) was subtracted to correct for differences in surface stability. Binding was analysed using 1:1 binding analysis due to the high affinity interaction between the antibody and antigen. The data was analysed using a procedure referred to as double referencing. This refers to the process of first subtracting the reference channel response (Fc1) and then subtracting the zero concentration sensorgram to compensate for bulk effects, baseline drift and small differences between the reference and the active channel.

Assay [2] concerns the target T1, human/cyno recombinant CD28 protein. The assay can be described thus: SPR (Biacore 8K, 25 C), CD28 captured by anti-His antibody, Fab as analyte, 1:1 fit; Fab_002. The protocol:
(§1) In order to assess the binding of test Fabs to human or mouse CD28 (Acro Biosystems, Newark, USA), multi-cycle kinetic analysis was performed at 25° C. on a Biacore® 8K (serial no. 2724204) HBS-P+ (Cytiva, Marlborough, USA) supplemented with 0.1% BSA (Sigma, Dorset, UK) was used as running buffer as well as for ligand and analyte dilutions. CD28 proteins were diluted to 1.0 μg/mL in running buffer and at the start of each cycle loaded onto Fc2, of a series S CM5 chip (Cytiva, Marlborough, USA) previously coupled with an anti-His capture antibody (Cytiva, Marlborough, USA) using standard amine chemistry. Ligand was captured at a flow rate of 10 μl/min to give an immobilization level (RL) of ~60 RU. The surface was then allowed to stabilize. Multi-cycle kinetic data was obtained antigens as the analyte injected at a flow rate of 30 μl/min to try and minimize any potential mass transfer effects. A 9 point 2-fold dilution of purified Fab titrated from 0.39 nM to 100 nM was prepared in running buffer for Fab proteins. For each concentration, the association phases were monitored for 240 seconds, and the dissociation phase was measured for 900 seconds. […] Binding was analysed using 1:1 binding analysis due to the high affinity interaction between the antibody and antigen. The data was analysed using a procedure referred to as double referencing. […]

In assay [3] the target is T2, mouse CD28 recombinant protein (mouse, UniProt P31041 20-150, limits assumed).
T2 construct: Bought recombinant protein
The assay can be described thus: SPR (Biacore 8K), CD28 captured on an anti-His surface, Fab as analyte. The protocol:
as §1

Assay [4] deals with T2, mouse CD28 recombinant protein. Put plainly: ELISA on coated mouse CD28, absorbance (blank corrected). How it is done:
(§2) For ELISA binding assays, 384 well or 96 well plates were coated with 1 ug/ml and incubated overnight at 4° C., protected from light. Plates were washed twice with PBS/0.05% Tween 20 before blocking with block buffer (3% milk protein in PBS) for 1 hour at room temperature. Next, test agent or controls were loaded and incubated for 1 hour at room temperature. Plates were then washed three times with PBS/0.05% Tween 20. Finally, HRP conjugated secondary antibody, diluted 1/5,000 in block buffer, was added and incubated for 1 hour at room temperature. Plates were again washed three times with PBS/0.05% Tween before addition of TMB substrate and incubation for 6 minutes at room temperature. Subsequently, the reaction was stopped with stop solution. Absorbance was read at 450 nm and 570 nm. Absorbance at 570 nm was subtracted from absorbance at 450 nm for each plate.

In assay [5] the target is T1, human/cyno recombinant CD28 protein. Put plainly: ELISA on coated huCD28, corrected absorbance (A450-570 nm). The protocol: as §2
To assess the ability of undigested fully intact and MMP12 incubated proteins to interact with CD28, binding ELISAs to recombinant human CD28 domain were carried out. In parallel, purified IgG_001 and IgG_002 proteins were used as positive controls while isotype binding was used as negative control.

Assay [6] addresses human CD28 in its native form displayed on the cell surface (human, UniProt P10747 19-220). The assay can be described thus: cell-based or functional assay.
Assay [7] deals with T1, human/cyno recombinant CD28 protein. Put plainly: SPR (Biacore 8K, 25 C), CD28 captured by anti-His antibody, Fab as analyte, 1:1 fit; Fab_001 (CD28 TGN derived sequence). How it is done:
as §1

B1: Fab_002 (Fab, V domains shown)
VH: QVQLQQSGAELKKPGASVKVSCKASGYTFTEYIIHWIKLRSGQGLEWIGWFYPGSNDIQYNAQFKGKATLTADKSSSTVYMELTGLTPEDSAVYFCARRDDFSGYDALPYWGQGTLVTVSA
VL: DIQMTQSPSSLSASVGDRVTITCKTNENIYSNLAWYQQKDGKSPQLLIYAATHLVEGVPSRFSGSGSGTQYSLTISSLQPEDFGNYYCQHFWGTPCTFGGGTKLEIKR
notes: also called Anti-CD28-2 Fab
With B1, in assay [1], the dissociation constant (Kd) stood at 0.532 nM, the koff came out at 0.000241 s⁻¹ and the kon was 454000 M⁻¹ s⁻¹. For the same molecule, the Kd in assay [2] stood at 0.53 nM. In addition, the binding result in assay [3] is “no binding”.

B2: IgG_002 (antibody, V domains shown)
VH: QVQLQQSGAELKKPGASVKVSCKASGYTFTEYIIHWIKLRSGQGLEWIGWFYPGSNDIQYNAQFKGKATLTADKSSSTVYMELTGLTPEDSAVYFCARRDDFSGYDALPYWGQGTLVTVSA
VL: DIQMTQSPSSLSASVGDRVTITCKTNENIYSNLAWYQQKDGKSPQLLIYAATHLVEGVPSRFSGSGSGTQYSLTISSLQPEDFGNYYCQHFWGTPCTFGGGTKLEIKR
notes: also called non superagonist CD28 IgG
B2: the binding result in assay [4] is on record as “no binding (tested: about 300 nM)”.

B3: LPD28-3, intact (bispecific antibody, human IgG1, kappa)
heavy: not shown
light: not shown
chain: SCPPCPAPEAAGAPSVFLFPPKPKDTLMISRTPEVTCVVVDVSHEDPEVKFNWYVDGVEVHNAKTKPREEQYNSTYRVVSVLTVLHQDWLNGKEYKCKVSNKALPAPIEKTISKAKGQPREPQVCTLPPSRDELTKNQVSLSCAVKGFYPSDIAVEWESNGQPENNYKTTPPVLDSDGSFFLVSKLTVDKSRWQQGNVFSCSVMHEALHNHYTQKSLSLSPGK
notes: Asymmetric one arm construct: anti-PD-L1 Fab above anti-CD28-2 Fab; also called undigested LPD28-3; LPD28-3 (0 min)
For B3, the binding result in assay [5] is given as “binds”.

B4: IgG_001 (antibody, V domains shown)
VH: QVQLVQSGAEVKKPGASVKVSCKASGYTFTSYYIHWVRQAPGQGLEWIGSIYPGNVNTNYNEKEKDRATLTVDTSISTAYMELSRLRSDDTAVYFCTRSHYGLDWNFDVWGQGTTVTVSS
VL: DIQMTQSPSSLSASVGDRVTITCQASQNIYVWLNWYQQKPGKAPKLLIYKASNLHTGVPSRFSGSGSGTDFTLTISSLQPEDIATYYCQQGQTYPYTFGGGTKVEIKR
notes: also called TGN derived CD28 V domain IgG_001 on IgG1-Fc isotype
As to B4, in assay [6], the “mean IL2 secretion, PBMC of 20 donors on plate-coated protein, 72 h” value was around 2000 pg/mL. In addition, the binding result in assay [4] is given as “no binding (tested: about 300 nM)”.

B5: Anti-CD28 Fab-001 (Fab, V domains shown)
VH: QVQLVQSGAEVKKPGASVKVSCKASGYTFTSYYIHWVRQAPGQGLEWIGSIYPGNVNTNYNEKEKDRATLTVDTSISTAYMELSRLRSDDTAVYFCTRSHYGLDWNFDVWGQGTTVTVSS
VL: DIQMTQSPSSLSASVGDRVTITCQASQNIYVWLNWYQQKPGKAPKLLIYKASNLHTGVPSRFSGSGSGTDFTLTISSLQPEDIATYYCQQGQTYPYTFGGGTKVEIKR
notes: Monovalent Fab
Regarding B5, in assay [1], the Kd is 0.593 nM, the koff is 0.00027 s⁻¹ and the kon is 455000 M⁻¹ s⁻¹. Besides, the binding result in assay [3] is given as “no binding”. The Kd in assay [7] stood at 0.59 nM.
